Data as given in patent US20260167699A1 (Chugai, published 2026).
Changes are numbered by the printed parent chain. Values belong to the binder of their own block, whether it stands above or below them.

Experiments:
[1] = molecular target: T1, FcγRIa extracellular domain, C-terminal His tag (human, UniProt P12314 16-292); assay: SPR (Biacore); binding relative to GpH7-A5/GpH7-B3/GpL16-k0 x100;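 also: antibodies captured on a chip surface, soluble FcγR flowed over in HBS-EP+ running buffer at 25 °C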
T1 construct: extracellular domain; also called 1a
T1 sequence (P12314 other isoform, or with tags, fused parts or gaps): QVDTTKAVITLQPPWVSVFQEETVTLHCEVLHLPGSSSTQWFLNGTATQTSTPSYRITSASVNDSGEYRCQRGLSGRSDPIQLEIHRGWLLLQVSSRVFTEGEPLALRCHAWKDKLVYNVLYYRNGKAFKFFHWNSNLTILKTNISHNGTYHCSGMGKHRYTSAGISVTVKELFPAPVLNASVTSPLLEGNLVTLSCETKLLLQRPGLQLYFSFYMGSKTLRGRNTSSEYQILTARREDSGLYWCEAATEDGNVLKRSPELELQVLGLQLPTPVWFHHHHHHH

[2] = molecular target: T2, FcγRIIa(R) extracellular domain, C-terminal His tag (human, UniProt P12318 34-217); assay: as above
T2 construct: extracellular domain; Allotype R131; also called 2aR
T2 sequence: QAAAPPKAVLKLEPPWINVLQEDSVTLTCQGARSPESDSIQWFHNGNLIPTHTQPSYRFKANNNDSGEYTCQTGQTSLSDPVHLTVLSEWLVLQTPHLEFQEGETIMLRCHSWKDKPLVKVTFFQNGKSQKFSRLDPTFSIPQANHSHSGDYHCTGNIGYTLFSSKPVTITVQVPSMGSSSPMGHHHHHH

[3] = molecular target: T3, FcγRIIa(H) extracellular domain, C-terminal His tag (human, UniProt P12318 34-217); assay: as above
T3 construct: extracellular domain; Allotype H131; also called 2aH
T3 sequence: T2 sequence with R134H

[4] = molecular target: T4, FcγRIIb extracellular domain, C-terminal His tag (human, UniProt P31994 43-217); assay: as above
T4 construct: extracellular domain; also called 2b
T4 sequence: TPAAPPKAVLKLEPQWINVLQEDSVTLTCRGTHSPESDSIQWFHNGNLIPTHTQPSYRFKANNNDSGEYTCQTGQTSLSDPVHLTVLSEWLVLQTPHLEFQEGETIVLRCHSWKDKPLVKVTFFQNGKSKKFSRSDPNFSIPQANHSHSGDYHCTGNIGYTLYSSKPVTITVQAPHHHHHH

[5] = molecular target: T5, FcγRIIIa extracellular domain, C-terminal His tag (human, UniProt P08637 17-208); assay: as above
T5 construct: extracellular domain; also called 3a
T5 sequence (P08637 other isoform, or with tags, fused parts or gaps): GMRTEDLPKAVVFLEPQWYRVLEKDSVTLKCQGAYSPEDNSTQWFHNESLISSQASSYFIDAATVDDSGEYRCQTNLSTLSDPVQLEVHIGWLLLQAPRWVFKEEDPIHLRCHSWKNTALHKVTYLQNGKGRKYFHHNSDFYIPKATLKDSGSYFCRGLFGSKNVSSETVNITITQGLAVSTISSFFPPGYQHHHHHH

FcγRIIIaV = molecular target: T6, FcγRIIIaV (human, UniProt P08637 17-208); assay: SPR (Biacore), antibody captured, FcγR as analyte, 1:1 Langmuir fit
T6 construct: extracellular domain
T6 sequence (P08637 other isoform, or with tags, fused parts or gaps): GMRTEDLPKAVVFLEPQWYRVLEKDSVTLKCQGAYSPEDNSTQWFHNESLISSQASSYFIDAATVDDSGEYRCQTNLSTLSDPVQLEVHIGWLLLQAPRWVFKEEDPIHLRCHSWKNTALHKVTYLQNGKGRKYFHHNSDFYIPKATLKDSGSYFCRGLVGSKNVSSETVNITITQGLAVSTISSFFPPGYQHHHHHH
Procedure: The antibody of interest was analyzed for its interaction with FcγR using a BiaCore™ T100, BiaCore™ A100, or BiaCore™ 4000 surface plasmon resonance system (GE Healthcare Japan Corp.). The running buffer used was HBS-EP+ (GE Healthcare Japan Corp.). The assay temperature was set to 25° C. The sensor chips used were: a chip prepared by immobilizing antigenic peptides onto Series S Sensor Chip CM5 (GE Healthcare Japan Corp.) by the amine coupling method; a chip prepared by immobilizing antigenic peptides biotinylated in advance onto Series S Sensor Chip SA (certified) (GE Healthcare Japan Corp.) through their interaction; a chip prepared by immobilizing protein L (ACTIGEN, BioVision, Inc.) onto Series S Sensor Chip CM5 (GE Healthcare Japan Corp.); and a chip prepared by immobilizing protein A/G (Thermo Fisher Scientific K.K.) onto Series S Sensor Chip CM5 (GE Healthcare Japan Corp.). The antibody of interest was captured onto any of these chips and allowed to interact with FcγR diluted with a running buffer. The antibody captured on the chip was washed off through the reaction of 10 mM glycine-HCl (pH 1.5) to regenerate the chip, which was repetitively used.

B1: GpH7-A5/GpH7-B3 variant S324_16H/GpL16-k0 (antibody, human IgG1, kappa)
heavy 1: not shown
heavy 2: not shown
light: DIVMTQSPLSLPVTPGEPASISCQASESLVHSNRNTYLHWYLQKPGQSPQLLIYKVSNRFSGVPDRFSGSGSGTDFTLKISRVEAEDVGVYYCSQNTHVPPTFGQGTKVEIERTVAAPSVFIFPPSDEQLKSGTASVVCLLNNFYPREAKVQWKVDNALQSGNSQESVTEQDSKDSTYSLSSTLTLSKADYEKHKVYACEVTHQGLSSPVTKSFNRGEC
notes: He Ab: anti-glypican 3 IgG1 heterodimer, only the GpH7-B3 chain mutated; position in EU numbering; also called He Ab
He/Con 1a [1]: 106%
He/Con 2aR [2]: 105%
He/Con 2aH [3]: 113%
He/Con 2b [4]: 109%
He/Con 3a [5]: 113%

B2: H240-Kn125/H240-Hl076/L73-k0 (antibody, human IgG1, kappa)
heavy 1: QDQLVQSGAEVKKPGASVKVSCKASGFNIKDTYIQWVRQAPGQGLEWMGRIDPLRKQTKYREKFEGRVTITADTSTNTAYMELSSLRSEDTAVYYCVRSGREFDYWGQGTLVTVSSASTKGPSVFPLAPSSKSTSGGTAALGCLVKDYFPEPVTVSWNSGALTSGVHTFPAVLQSSGLYSLSSVVTVPSSSLGTQTYICNVNHKPSNTKVDKKVEPKSCDKTHTCPPCPAPELLGGPSVFLFPPKPKDTLMISRTPEVTCVVVDVSHEEPEVKFNWYVDGVEVHNAKTKPREEQYNSTYRVVSVLTVLHQDWLNGKEYKCKVSNDALPMPIEETISKAKGQPREPQVYTLPPSRCELTKNQVSLSCAVKGFYPSDIAVEWESNGQPENNYKTTPPVLDSDGSFFLVSKLTVDKSRWQQGNVFSCSVMHEALHNHYTQKSLSLSP
heavy 2: QDQLVQSGAEVKKPGASVKVSCKASGFNIKDTYIQWVRQAPGQGLEWMGRIDPLRKQTKYREKFEGRVTITADTSTNTAYMELSSLRSEDTAVYYCVRSGREFDYWGQGTLVTVSSASTKGPSVFPLAPSSKSTSGGTAALGCLVKDYFPEPVTVSWNSGALTSGVHTFPAVLQSSGLYSLSSVVTVPSSSLGTQTYICNVNHKPSNTKVDKKVEPKSCDKTHTCPPCPAPEYQWGPMVFLFPPKPKDTLMISRTPEVTCVVVDVSDEEPEVKFNWYVDGVEVHNAKTKPREEQYNATYRVVSVLTVLHQDWLNGKEYKCKVSNKALPAPIEKTISKAKGQPREPQVCTLPPSRDELTKNQVSLWCLVKGFYPSDIAVEWESNGQPENNYKTTPPVLDSDGSFFLYSKLTVDKSRWQQGNVFSCSVMHEALHNHYTQKSLSLSP
light: DIQMTQSPSSLSASVGDRVTITCRASQDIHKYIAWYQQKPGQAPRLLIQYTSTLQPGVPSRFSGSGSGTDYTFTISSLQPEDIATYYCLQYEQLRTFGGGTKVEIKRTVAAPSVFIFPPSDEQLKSGTASVVCLLNNFYPREAKVQWKVDNALQSGNSQESVTEQDSKDSTYSLSSTLTLSKADYEKHKVYACEVTHQGLSSPVTKSFNRGEC
notes: heterodimerized anti-EREG antibody, parent of the loop-extended forms; also called HI076/Kn125; parent peptide
Kd (FcγRIIIaV): 0.47 nM

B3: HI076-L2-GS12 (antibody, human IgG1, kappa)
heavy 1: QDQLVQSGAEVKKPGASVKVSCKASGFNIKDTYIQWVRQAPGQGLEWMGRIDPLRKQTKYREKFEGRVTITADTSTNTAYMELSSLRSEDTAVYYCVRSGREFDYWGQGTLVTVSSASTKGPSVFPLAPSSKSTSGGTAALGCLVKDYFPEPVTVSWNSGALTSGVHTFPAVLQSSGLYSLSSVVTVPSSSLGTQTYICNVNHKPSNTKVDKKVEPKSCDKTHTCPPCPAPELLGGPSVFLFPPKPKDTLMISRTPEVTCVVVDVGGGSGGGSGGGSVKFNWYVDGVEVHNAKTKPREEQYNSTYRVVSVLTVLHQDWLNGKEYKCKVSNDALPMPIEETISKAKGQPREPQVYTLPPSRCELTKNQVSLSCAVKGFYPSDIAVEWESNGQPENNYKTTPPVLDSDGSFFLVSKLTVDKSRWQQGNVFSCSVMHEALHNHYTQKSLSLSP
heavy 2: B2 heavy 2
light: B2 light
notes: heterodimerized anti-EREG antibody: altered H240-Hl076 chain (Gly/Ser peptide in loop) with H240-Kn125 and L73-k0; also called Hl076-L2-GS12_2
Kd (FcγRIIIaV): 2.8 nM

Now from value to binder:

Kd (FcγRIIIaV): 2.8 nM
B4: HI076-L2-GS6 (antibody, human IgG1, kappa)
heavy 1: B2 heavy 1 with S266G, H267G, E268S, E269G, P270G, E271S
heavy 2: B2 heavy 2
light: B2 light
notes: heterodimerized anti-EREG antibody: altered H240-Hl076 chain (Gly/Ser peptide in loop) with H240-Kn125 and L73-k0; also called Hl076-L2-GS6_2

Kd (FcγRIIIaV): 1.9 nM
B5: HI076-L2-6 (antibody, human IgG1, kappa)
heavy 1: B3 heavy 1 with G266S, G267H, S269G, G270S, G274E, G275E, G276P, S277E
heavy 2: B2 heavy 2
light: B2 light
notes: heterodimerized anti-EREG antibody: altered H240-Hl076 chain (Gly/Ser peptide in loop) with H240-Kn125 and L73-k0; also called Hl076-L2-6

Kd (FcγRIIIaV): 1.8 nM
B6: Kn125-L4-GS5 (antibody, human IgG1, kappa)
heavy 1: B2 heavy 1
heavy 2: B2 heavy 2 with K325G, A326S, L327G, P328G, A329S
light: B2 light
notes: heterodimerized anti-EREG antibody: altered H240-Kn125 chain (Gly/Ser peptide in loop) with H240-Hl076 and L73-k0
